Patent US20190264213A1 (YEDA RESEARCH AND DEVELOPMENT, published 2019)

B1: phi3T AimR receptor with C-terminal 6xHis-tag (purified) (receptor)
chain: MIKNECEKDNQLAARLAKLAGYEKVNGFYKFVNTPEKEMENLGGLLKIVKNLFPDSEEQLLSEYFLELDPNKKCARQSVEYSDINQWDTLTDKIIINLCNSKNSTSQEWGKVYSLHRKLNKNEISLNDAIRESGKCKIKSAEMLFFSNAMLMYAYLNIGEFGLMKSTSKLLEFDDLPEGFIKESFKSRVSMLEANISLNENSLLEARQHSNRAIENSNVNRICFFAYLTIGNTLIFEDYDEAKKAYIKGQKYAKNPVHQEMLDGALCFLSNIWKKENQWVNYNSDNIKYLQLRAFYYINQGNIEEATEILDELSSRDQDENELGFYYYYKGLISQDKTDYYKSIRYFKKSDDKYFIQLPLLQLERMGADLELLNLISIHHHHHH
notes: Expressed in E. coli BL21(DE3) from pET28a and purified in two steps; Migrates as a homodimer in gel filtration without peptide and as a monomer with SAIRGA; also called His-tagged AimR; purified AimR

Legend:
[1] = biological target: B1; test: microscale thermophoresis (MST), label-free
Protocol: Two-step purified 6×His-tagged AimR stored in Tris/NaCl buffer (50 mM Tris pH 8.0, 150 mM NaCl, 2 mM TCEP) at −80° C. was thawed on ice and centrifuged at 21,000 g for 10 minutes at 4° C. prior to analysis. […] AimR was diluted to 200 nM and was incubated with 16 different peptide concentrations varying between 9-4000 nM, which were prepared in Tris/NaCl buffer containing 0.1% [v/v] Pluronic acid (NanoTemper). Roughly 3 μl were loaded into NT.LabelFree Zero-Background Premium Coated Capillaries (NanoTemper) and inserted into a Monolith NT.LabelFree device (NanoTemper). MST experiments were performed at 60% MST power (infra-red laser) and 20% LED power at 23° C. using the Monolith NT.LabelFree instrument (Nanotemper). Ratios between normalized initial fluorescence and post-temperature-jump and thermophoresis were calculated and averaged from 3 independent runs (runs were incubated for 20 minutes at room temperature before the measurement).

[2] = biological target: the molecule itself; test: analytical gel filtration (Superdex 200 Increase), self-association
Protocol: Pure AimR was injected to an analytical gel filtration column (Superdex_200_Increase_10/30 GL, GE Healthcare) equilibrated with buffer containing 20 mM Tris pH 8, 0.3 M NaCl, 2 mM TCEP. […] The column was calibrated (inset of FIG. 4C) by monitoring the migration positions of the following known proteins/polymers: blue dextran (2000 kDa), Thyroglobulin (669 kDa), Apoferritin (443 kDa), beta-amylase (200 kDa), alcohol dehydrogenase (150 kDa), Albumin (66 kDA) and Carbonic anhydrase (29 kDa).

| Binder | binding result [1] | binding result [2] |
| --- | --- | --- |
| GMPRGA (Synthetic peptide, 98% purity, desalted (Peptide 2.0 Inc.); also called spBeta-derived GMPRGA peptide) [GMPRGA peptide (spBeta arbitrium peptide, mature AimP)] | no binding (tested: peptide 9-4000 nM, AimR 200 nM) |  |
| B1 |  | binds |
